One experiment deals with wild type ER. Nature of the experiment: ERE-TATA-luciferase transactivation of wild type ER in COS-7 cells. The format is cell-based. As to conditions: COS-7, wild type ER, presence of ligand. On the procedure:
FIG. 1. Mapping of the region of cyclin D1 required for ER-mediated transactivation. • (A) The effect of cyclin D1 deletion mutants on ER activation in the presence of ligand. The cyclin D1 derivatives used in this study are shown in the left panel; right side of Figure represents the relative capacity of the mutants to potentiate ERE-dependent transcription. ER-negative COS-7 cells were transfected with expression vectors for wild type ER (200 ng), cyclin D1 or cyclin D1 mutants (2.5 μg), an internal control §-galactosidase plasmid (0.5 μg) and an ERE-TATA-luciferase reporter (3 μg). The effect on ER transactivation of wild type cyclin D1 was set to 100%. These studies were performed in three separate experiments and expressed as mean values with standard deviation less then […]. The alignment of leucine-rich motif of ER with D-type cyclins are shown on the bottom; the leucine-rich motif in cyclin D1 is indicated as a dark box. The identifiers for the sequences shown are as follows: Cyclin D1 (SEQ ID NO:11), Estrogen receptor (SEQ ID NO:12), the Cyclin D2 (SEQ ID NO:13), and the Cyclin D3 (SEQ ID NO:14). • (B) ER activation by D-type cyclins, cyclin D1 L254/255A point mutant (D1-LALA) and SRC-1 in the presence of ligand. COS-7 cells were transfected with D-type cyclin expression vectors, cyclin D1 Leucine-to-Alanine point mutant (D1-LALA) or SRC-1 expression vector together with wild type ER expression vector, an ERE-TATA-luciferase reporter plasmid and the internal control β-galactosidase construct. Data are expressed as relative luciferase activity compared with basal ERE-luciferase activity of wild type ER and are normalized for transfection efficiencies.
FIG. 3. Role of coactivators in cyclin D1—induced transactivation. • (A) Effect of a dominant negative form of SRC-1 (SRC1-DN) on ER transactivation. SRC1-DN encoding amino acids 1245-1441 of SRC-1 (1, 2.5 and 5 μg) was introduced by transient transfection together with wild type ER (200 ng) and was tested for its ability to modulate ERE-dependent transcription. • (B) Effect of SRCI-DN on SRC-1 and TIF 2 mediated ER transactivation. SRC-1 (3 μg) or TIF-2 (3 μg) were transfected with SRC1-DN (3 μg) and tested for ER transactivation. • (C) Effect of SRC1-DN on cyclin D1-induced transactivation of ER 1-535 mutant. Cyclin D1 was cotransfected with SRC1-DN (1, 2.5, 5 μg) and tested for its effect on an ER harboring a deletion of coactivator binding site in helix 12 (ER 1-535). • (D) Effect of SRC1-DN on cyclin D1-induced transactivation of ER L543/544A mutant. Cyclin D1 and SRC1-DN (1, 2.5, 5 gg) were transfected and tested for the activity of ER helix 12 point mutant (ER L543/544A). The transient transfections (A-C) were performed in COS-7 cells, which were maintained in DMEM with 10 nM ligand. The relative activity was calculated by normalizing to the internal control and was divided by luciferase activity of ER (mutant) in the presence of ligand. The transfection for each set of conditions were done at least in four independent experiments and expressed as average ±SD.
To study how cyclin D1 activates ER, cyclin D1 deletion mutants were tested for their effect on ER-transactivation. COS-7 cells were transfected with cyclin D1 mutants, together with ER and a luciferase reporter gene construct driven by a minimal TATA promoter linked to an estrogen response element (ERE). […] This part of the protein is not involved in CDK interaction and is poorly conserved among the different cyclins. […] To test the relevance of this leucine-rich domain of cyclin D1 in ER activation, a cyclin D1 mutant was constructed in which leucines 254 and 255 were mutated to alanines (D1 L254/255A). This mutation in cyclin D1 is similar to the mutation in ER (ER L543/544A) that interferes with coactivator binding to AF-2 (Danielian et al., 1992). […]

Experiment [1] concerns the target T1, GST-SRC1 (361-1441) and His-tagged cyclin D1 (Homo sapiens, UniProt P24385).
T1 construct: 6X histidine; made in house; host or cells: E. coli
Kind of experiment: GST pull down peptide competition assay. The format is binding. As to conditions: for interference with binding of cyclin D1 to SRC-1: 0.3 μg and 3 μg peptide, Western blot with anti-cyclin D1 antibody. The protocol: To ask whether the LXXLL (SEQ ID NO:6) motifs of SRC-1 are involved in cyclin D1 binding, a peptide competition experiment was performed. Peptides (0.3 μg and 3 μg) derived from the four LXXLL motifs of SRC1 were used in a GST pull down assay using GST-SRC1 (361-1441) and His-tagged cyclin D1 as described above. […] The reduction in binding was greater with 3 μg than with 0.3 μg of each of the LXXLL (SEQ ID NO:6) peptides with no reduction shown with the LXXAA (SEQ ID NO:21)mutant peptide. […] In another experiment, the ability of peptides to compete with cyclin D1 for binding to GST-SRC1 was investigated. Increasing amounts (100, 200 and 500 nM) of AASKHKQLSELLRSG (SEQ ID NO:1) (LXXLL (SEQ ID NO:6)) and AASKHKQLSEAARSG (SEQ ID NO:23) (LXXAA) (SEQ ID NO:21) peptides were used in a GST pull down assay using GST-SRC1 (361-1441) and His-tagged cycliin D1.
GST protein, GST-SRC1 fusion protein and His-tagged cyclin D1 protein were purified as described previously (Zwijsen et al., 1997). Binding between 500 ng GST-SRC1 and 100 ng His-D1 was performed in binding buffer (50 mM NaCl, 50 mM HEPES-KOH pH 7.6, […] 0.1% (w/v) NP40, 0.1 mM PMSF and 0.5% charcoal-stripped serum) bound to glutathione-sepharose for 1 hour at 4° C. The beads were washed three times and bound proteins were eluted by boiling for 10 minutes in sample buffer and separated on 10% SDS-PAGE. The binding of His-cyclin D1 to GST-SRC1 was detected by Western blot analysis using monoclonal antibodies directed against cyclin D1 (DCS-6, Neomarkers). For testing a ternary complex, a baculovirus-produced ER (750 ng, Pan Vera) was added to GST-SRC1 (500 ng) and His-D1 (100 ng) in the presence or absence of 1 μM 17β-estradiol using similar conditions as described above. In Western blot analysis monoclonal antibodies directed against cyclin D1 (DCS-6, Neomarkers) and ER (LH2, Novocastra) were used.
For the peptide inhibition assay using the peptides shown in FIG. 4(B), 150 ng GST/GST-SRC1 and 50 ng His-tagged cyclin D1 were used. […]

T1 sequence (P24385 whole entry): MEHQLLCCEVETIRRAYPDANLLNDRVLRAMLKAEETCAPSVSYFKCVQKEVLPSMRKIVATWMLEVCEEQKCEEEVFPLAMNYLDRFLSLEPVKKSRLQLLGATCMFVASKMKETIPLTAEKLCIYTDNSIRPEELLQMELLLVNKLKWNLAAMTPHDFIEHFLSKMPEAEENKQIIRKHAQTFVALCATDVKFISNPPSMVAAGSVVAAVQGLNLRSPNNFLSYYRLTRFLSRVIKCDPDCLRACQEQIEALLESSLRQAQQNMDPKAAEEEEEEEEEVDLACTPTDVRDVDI

On to “D1: amino acids 1-267: cyclin D1 mutant lacking the extreme carboxyl-terminus”, for which, in the experiment with wild type ER, the ER transactivation capacity result is “partially retained ER activation”.
Take “D1: amino acids 91-295: amino-terminal deletion mutant of cyclin D1”: the ER transactivation capacity result in the experiment on wild type ER was “still able to activate ER”.
As to “D1: amino acids 1-247: carboxyl-terminal deletion mutant of cyclin D1”, the ER transactivation capacity entry in the experiment with wild type ER is “lack ER transactivation capacity”.
Turning to “P3: peptide which corresponds to the third of the three centrally located LXXLL motifs of SRC-1 (KDHQLLRYLLDKDE; listed as Homo sapiens)”, the “interference with binding of cyclin D1 to SRC-1” value in experiment [1] is listed as “best competitor”.
In the case of “AASKHKQLSELLRSG [LXXLL peptide derived from p300 amino acid 74-88]”, the “competition with cyclin D1 for binding to GST-SRC1” value in experiment [1] (100, 200 and 500 nM peptide) was “Binding was reduced with increasing concentration”.
“LXXAA mutant peptide: LXXAA mutant control peptide of the SRC-1 peptide competition experiment, FIG. 4B (PQAQQKSLQQAAT; listed as Homo sapiens) [reference compound]”: the “interference with binding of cyclin D1 to SRC-1” value in experiment [1] is “no reduction”.

B1: cyclin D2: D-type cyclin lacking the leucine-rich motif (protein, UniProt P30279 1-289, looked up)
G1/S-specific cyclin-D2: MELLCHEVDPVRRAVRDRNLLRDDRVLQNLLTIEERYLPQCSYFKCVQKDIQPYMRRMVATWMLEVCEEQKCEEEVFPLAMNYLDRFLAGVPTPKSHLQLLGAVCMFLASKLKETSPLTAEKLCIYTDNSIKPQELLEWELVVLGKLKWNLAAVTPHDFIEHILRKLPQQREKLSLIRKHAQTFIALCATDFKFAMYPPSMIATGSVGAAICGLQQDEEVSSLTCDALTELLAKITNTDVDCLKACQEQIEAVLLNSLQQYRQDQRDGSKSEDELDQASTPTDVRDIDL
On to B1, for which, in the experiment with wild type ER, the ER transactivation capacity entry is “behaved similar-to the D1 L254/255A mutant”.

B2: cyclin D3: D-type cyclin lacking the leucine-rich motif (protein, UniProt P30281 1-292, looked up)
G1/S-specific cyclin-D3: MELLCCEGTRHAPRAGPDPRLLGDQRVLQSLLRLEERYVPRASYFQCVQREIKPHMRKMLAYWMLEVCEEQRCEEEVFPLAMNYLDRYLSCVPTRKAQLQLLGAVCMLLASKLRETTPLTIEKLCIYTDHAVSPRQLRDWEVLVLGKLKWDLAAVIAHDFLAFILHRLSLPRDRQALVKKHAQTFLALCATDYTFAMYPPSMIATGSIGAAVQGLGACSMSGDELTELLAGITGTEVDCLRACQEQIEAALRESLREASQTSSSPAPKAPRGSSSQGPSQTSTPTDVTAIHL
In the case of B2, in the experiment on wild type ER, the ER transactivation capacity entry is “behaved similar-to the D1 L254/255A mutant”.

B3: D1: amino acids 1-202: carboxyl-terminal deletion mutant of cyclin D1 (protein, UniProt P24385 1-202, looked up, fragment)
chain: MEHQLLCCEVETIRRAYPDANLLNDRVLRAMLKAEETCAPSVSYFKCVQKEVLPSMRKIVATWMLEVCEEQKCEEEVFPLAMNYLDRFLSLEPVKKSRLQLLGATCMFVASKMKETIPLTAEKLCIYTDNSIRPEELLQMELLLVNKLKWNLAAMTPHDFIEHFLSKMPEAEENKQIIRKHAQTFVALCATDVKFISNPPSM
For the molecule B3, the ER transactivation capacity entry in the experiment with wild type ER is listed as “lack ER transactivation capacity”.

The values above are taken from patent publication US7012128B2, “Interaction between cyclin D1 and steroid receptor co-activators and uses thereof in assays” (TopoTarget UK Limited, priority 1998, dated 2006).
